Test results reported in paper PMC4893494, “Identification and Characterization of Five BAHD Acyltransferases Involved in Hydroxycinnamoyl Ester Metabolism in Chicory” (Frontiers in Plant Science, 2016).

How the values were obtained:
Experiment in all cases: HPLC-UV of product, Michaelis-Menten
Format in all cases: biochemical, Cichorium intybus
[1] = substrate: O=C(O)[C@]1(O)C[C@@H](O)[C@@H](O)[C@H](O)C1; details: acyl acceptor varied, saturating caffeoyl-CoA (800 μM), 50 mM phosphate pH 7.1, room temperature
Description: HPLC-UV of product, Michaelis-Menten on HQT2 (CiHQT2)

[2] = substrate: O=C(O)C1=C[C@@H](O)[C@@H](O)[C@H](O)C1; details: acyl acceptor varied, saturating p-coumaroyl-CoA (800 μM), 50 mM phosphate pH 7.1, room temperature
Description: HPLC-UV of product, Michaelis-Menten on HCT1 (CiHCT1)

[3] = substrate: O=C(O)[C@]1(O)C[C@@H](O)[C@@H](O)[C@H](O)C1; details: acyl acceptor varied, saturating caffeoyl-CoA (800 μM), 50 mM phosphate pH 7.1, room temperature; remark: listed apart in the source
Description: HPLC-UV of product, Michaelis-Menten on HQT1 (CiHQT1)

[4] = substrate: O=C(O)[C@]1(O)C[C@@H](O)[C@@H](O)[C@H](O)C1; details: acyl acceptor varied, saturating caffeoyl-CoA (800 μM), 50 mM phosphate pH 7.1, room temperature; remark: listed apart in the source
Description: HPLC-UV of product, Michaelis-Menten on HQT3 (CiHQT3)

B1: HQT2 (CiHQT2) (Cichorium intybus) (protein)
chain: MGSDQKMMMNINIKKSSIIPPSETIPECPKQLWTSNLDLVVGRIHILTVYFYRPNGSANFFDPNVMKKALADVLVSFYPMAGRLDRDESGRIVINCNGEGVLFVEAESDSTLDDFGEFTPSPEFRRLTPTVDYSGDISSYPLFFAQVTHFKCGGVALGCGVFHTLSDGLSSLHFINTWSDMARGLSVAIPPFIERTLLRAREPPTPTHDHVEYHEPPSMSPTAQKPGSGSSTTMLKLTLDQLNTLKVKAKIESGQTHSTYEILAAHIWRCACKARGLPDDQLTKLYVATDGRSRLSPRLPPGYLGNVVFTATPVAKSGDLTSGSLSNTAKLIHTTLTKMDDDYLRSAIDYLESQKDLSALIRGPTYFASPNLNINAWTRLPVHDADFGYGRPIFMGPAQILYEGTVYVLPSPNNDRSVSLAVCLDANEQSLFEKFLYEL
Km [1]: 613 ± 53 µM
Vmax [1]: 8.04 µmol/min/mg
Vmax/Km [1]: 13200 µL/min/mg

B2: HCT1 (CiHCT1) (Cichorium intybus) (protein)
chain: MKIEVRESTMVRPAEETPKINLWNSNVDLVVPNFHTPSVYFYRPNGATNFFDPKVMKDALSKALVPFYPMGGRLKRDEDGRIEIDCQGQGVLFVEAESDGMVDDFGDFAPTLELRKLIPAVDYSQGIESYPLLVLQVTYFKCGGVSLGVGMQHHAADGASGLHFINTWSDMARGLDLTIPPFIDRTLLRARDPPQPAFEHVEYQPAPQMKTTSKSTDEQPVPETAVAIFKLTRDQLNALKAKSKENGNTINYSSYEMLSGHVWRCVCKARNLPADQDTKLYIATDGRARLRPSLPPGYFGNVIFTTTPIAVAGELMSNPTWYAAGKIHDGLAKMDNDYLKSALDYLELQPDLKALVRGAHSFRCPNLGITSWARLPIHDADFGWGRPIFMGPGGIAYEGLSFVLPSPINDGSLSIAISLQAEHMKVFSKFLYDI
Km [2]: 320 ± 40 µM
Vmax [2]: 14.2 µmol/min/mg
Vmax/Km [2]: 44400 µL/min/mg

B3: HQT1 (CiHQT1) (Cichorium intybus) (protein)
chain: MTNGAGSEKMKVTVKESVIVKPSKTTPIQRLWNSNIDLLVGRIHLLTIYFYRPNGSSDFFDSGVLKKALSDVLVSFFPMAGRLGKDGDGRVEINCNAEGVWFVEAEADCRIDDFGEITPSPELRRLAPTVDYSGDISSYPLFITQVTRFKCGGVSLGCGVHHTLSDGFSSLHFINTWSDVARGLSVAIPPFNDRTLLRARDPPTPMYDHVEYHPPPSLITPPENHKPPASTTILRLTLDQINDLKSKGKGDGSVYHSTFVIIAAHLWRSACKARGLSDDQPTKLYVATDGRSRLIPPLPSGYLGNVLFTTTPMAKSGEFKSESLADTARRIHNELARMDDQYMRSAIDYLELQSDLSALVRGPTYFASPNLNVNSWTRLPLYESDFGWGRPIFMGPASILYEGTIYIIPSPTDDRSLKLAVCLDSDHMSLFQKYLYDF
Km [3]: 162 ± 34 µM
Vmax [3]: 6.78 µmol/min/mg
Vmax/Km [3]: 42000 µL/min/mg

B4: HQT3 (CiHQT3) (Cichorium intybus) (protein)
chain: MGSDHKTMKINIKQSSLVQPSKPTIPSNKKLWTSNLDLVVGRIHILTVYFYRPNGCSNFFDPVVMKKALADVLVSFYPFAGRLSRDQNGRLEINCNGEGVLFVEAESDSTLDDFGEFTPSPELRRLTPTVDYSGDISSYPLFFAQVTHFKCGGVGLGCGVFHTLADGLSSIHFINTWSDMTRGLSIAVPPFTDRTLLRARETPTPTFDHVEYHLPPTMNTTSQNPKSSRKPSTNMLKLTIDQLNALKTAAKNDGGNTAYSTYEILAAHLWRCACKARGLPNDQQTKLYVATDGRSRLSPQLPPGYLGNVVFTATPMAKSGDLTTQPLSNSASLIRSTLSKMDNEYLRSAIDYLEVQPDLSALIRGPSYFASPNLNINTWTRLPVHDADFGWGRPVFMGPAVILYEGTIYVLPSPNNDRSMSLAVCLDADEQPLFEKFLYEF
Km [4]: 318 ± 71 µM
Vmax [4]: 9.9 µmol/min/mg
Vmax/Km [4]: 31200 µL/min/mg
